Measurements published in patent publication US20220332804A1 (CSL INNOVATION, published 2022).
Numbering of substitutions follows the chain as printed.

Key:
Assay in all cases: SPR, KD relative to WT C2;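 note: biacore SPR at 37 °C, anti-C2 mAbs captured via immobilised goat anti-human IgG, C2 alanine or serine surface mutants as analytes, 1:1 model fitted, double-referenced sensograms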
human C2 T483A = biological target: T1, human C2 T483A (human, UniProt P06681 21-752)
T1 sequence: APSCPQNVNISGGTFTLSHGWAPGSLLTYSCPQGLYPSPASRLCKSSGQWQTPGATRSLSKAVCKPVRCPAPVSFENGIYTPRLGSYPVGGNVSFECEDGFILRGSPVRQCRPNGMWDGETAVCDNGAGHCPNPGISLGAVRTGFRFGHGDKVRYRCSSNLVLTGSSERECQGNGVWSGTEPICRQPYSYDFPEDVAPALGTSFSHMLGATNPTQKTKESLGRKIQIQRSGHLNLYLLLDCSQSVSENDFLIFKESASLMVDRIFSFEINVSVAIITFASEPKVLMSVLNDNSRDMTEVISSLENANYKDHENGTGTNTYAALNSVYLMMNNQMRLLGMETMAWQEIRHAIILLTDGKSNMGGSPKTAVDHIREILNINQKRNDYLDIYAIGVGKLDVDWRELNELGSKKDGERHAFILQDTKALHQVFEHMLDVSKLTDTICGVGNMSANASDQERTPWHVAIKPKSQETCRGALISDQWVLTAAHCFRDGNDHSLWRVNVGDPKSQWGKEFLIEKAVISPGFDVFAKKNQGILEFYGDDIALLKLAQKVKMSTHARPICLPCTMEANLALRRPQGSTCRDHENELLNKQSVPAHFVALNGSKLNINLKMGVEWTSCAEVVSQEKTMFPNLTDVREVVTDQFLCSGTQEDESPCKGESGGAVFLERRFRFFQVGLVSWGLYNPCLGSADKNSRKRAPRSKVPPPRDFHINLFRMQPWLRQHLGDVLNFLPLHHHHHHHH

human C2 L620A = biological target: T2, human C2 L620A (human, UniProt P06681 21-752)
T2 sequence: T1 sequence with A463T, L600A

human C2 V448A = biological target: T3, human C2 V448A (human, UniProt P06681 21-752)
T3 sequence: T1 sequence with V428A, A463T

human C2 N380A = biological target: T4, human C2 N380A (human, UniProt P06681 21-752)
T4 sequence: T1 sequence with N360A, A463T

B1: RF16-226 (antibody, human IgG4 S228P, lambda)
heavy: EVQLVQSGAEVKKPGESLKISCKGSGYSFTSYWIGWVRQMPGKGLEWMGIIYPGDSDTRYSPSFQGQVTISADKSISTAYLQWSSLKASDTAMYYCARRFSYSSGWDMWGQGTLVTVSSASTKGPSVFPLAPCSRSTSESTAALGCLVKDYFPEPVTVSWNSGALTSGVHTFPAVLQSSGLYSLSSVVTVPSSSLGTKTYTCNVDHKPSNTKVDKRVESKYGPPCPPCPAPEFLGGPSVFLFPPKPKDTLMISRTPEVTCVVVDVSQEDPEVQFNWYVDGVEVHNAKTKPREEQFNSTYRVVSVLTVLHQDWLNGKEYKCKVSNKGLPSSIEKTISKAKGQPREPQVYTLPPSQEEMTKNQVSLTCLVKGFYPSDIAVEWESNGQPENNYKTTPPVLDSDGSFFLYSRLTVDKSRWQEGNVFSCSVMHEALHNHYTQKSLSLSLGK
light: SYELTQPPSVSVSPGQTARITCSGDALTSKYVAWYQQKSGLAPLLVIYEDTRRPSGIPAKFSGSSSGSVATLTISGAHGDDEADYYCYSTDASGHQRVFGGGTKLTVLSQPKAAPSVTLFPPSSEELQANKATLVCLISDFYPGAVTVAWKADGSPVKAGVETTKPSKQSNNKYAASSYLSLTPEQWKSHRSYSCQVTHEGSTVEKTVAPTECS
notes: pH-dependent anti-C2 antibody from a phage display library; also called WT
Fold diff (human C2 T483A): 1 fold | Fold diff (human C2 L620A): 1 fold | Fold diff (human C2 V448A): 0 fold | Fold diff (human C2 N380A): 2 fold
